Measured values published in paper PMC6533308, “In vitro NTPase activity of highly purified Pdr5, a major yeast ABC multidrug transporter” (Scientific Reports, 2019).

Assays:
[1] = tested on: Nc1nc2c(ncn2[C@@H]2O[C@H](COP(=O)(O)OP(=O)(O)OP(=O)(O)O)[C@@H](O)[C@H]2O)c(=O)[nH]1; experiment: purified protein; conditions: 10 mM MgCl2, 300 mM Tris-glycine pH 9.5, 0.004% trans-PCC-α-M, 20 min, 0-5 mM NTP
[2] = tested on: Nc1ccn([C@@H]2O[C@H](COP(=O)(O)OP(=O)(O)OP(=O)(O)O)[C@@H](O)[C@H]2O)c(=O)n1; experiment: purified protein; conditions: 10 mM MgCl2, 300 mM Tris-glycine pH 9.5, 0.004% trans-PCC-α-M, 20 min, 0-5 mM NTP
[3] = tested on: O=c1ccn([C@@H]2O[C@H](COP(=O)(O)OP(=O)(O)OP(=O)(O)O)[C@@H](O)[C@H]2O)c(=O)[nH]1; experiment: purified protein; conditions: 10 mM MgCl2, 300 mM Tris-glycine pH 9.5, 0.004% trans-PCC-α-M, 20 min, 0-5 mM NTP
[4] = tested on: Nc1ncnc2c1ncn2[C@@H]1O[C@H](COP(=O)(O)OP(=O)(O)OP(=O)(O)O)[C@@H](O)[C@H]1O; experiment: purified protein; conditions: 10 mM MgCl2, 300 mM Tris-glycine pH 9.5, 0.004% trans-PCC-α-M, 20 min, 0-5 mM NTP
Pdr5 [5] = target: T1, Pdr5 (Saccharomyces cerevisiae, UniProt P33302); experiment: inhibition of ATPase, colorimetric phosphate release; type: biochemical
T1 construct: full-length, N-terminal 14x His tag with protease cleavage site; homologous expression in S. cerevisiae (pdr1-3), solubilized and purified in trans-PCC-α-M by IMAC and SEC
T1 sequence (P33302 whole entry): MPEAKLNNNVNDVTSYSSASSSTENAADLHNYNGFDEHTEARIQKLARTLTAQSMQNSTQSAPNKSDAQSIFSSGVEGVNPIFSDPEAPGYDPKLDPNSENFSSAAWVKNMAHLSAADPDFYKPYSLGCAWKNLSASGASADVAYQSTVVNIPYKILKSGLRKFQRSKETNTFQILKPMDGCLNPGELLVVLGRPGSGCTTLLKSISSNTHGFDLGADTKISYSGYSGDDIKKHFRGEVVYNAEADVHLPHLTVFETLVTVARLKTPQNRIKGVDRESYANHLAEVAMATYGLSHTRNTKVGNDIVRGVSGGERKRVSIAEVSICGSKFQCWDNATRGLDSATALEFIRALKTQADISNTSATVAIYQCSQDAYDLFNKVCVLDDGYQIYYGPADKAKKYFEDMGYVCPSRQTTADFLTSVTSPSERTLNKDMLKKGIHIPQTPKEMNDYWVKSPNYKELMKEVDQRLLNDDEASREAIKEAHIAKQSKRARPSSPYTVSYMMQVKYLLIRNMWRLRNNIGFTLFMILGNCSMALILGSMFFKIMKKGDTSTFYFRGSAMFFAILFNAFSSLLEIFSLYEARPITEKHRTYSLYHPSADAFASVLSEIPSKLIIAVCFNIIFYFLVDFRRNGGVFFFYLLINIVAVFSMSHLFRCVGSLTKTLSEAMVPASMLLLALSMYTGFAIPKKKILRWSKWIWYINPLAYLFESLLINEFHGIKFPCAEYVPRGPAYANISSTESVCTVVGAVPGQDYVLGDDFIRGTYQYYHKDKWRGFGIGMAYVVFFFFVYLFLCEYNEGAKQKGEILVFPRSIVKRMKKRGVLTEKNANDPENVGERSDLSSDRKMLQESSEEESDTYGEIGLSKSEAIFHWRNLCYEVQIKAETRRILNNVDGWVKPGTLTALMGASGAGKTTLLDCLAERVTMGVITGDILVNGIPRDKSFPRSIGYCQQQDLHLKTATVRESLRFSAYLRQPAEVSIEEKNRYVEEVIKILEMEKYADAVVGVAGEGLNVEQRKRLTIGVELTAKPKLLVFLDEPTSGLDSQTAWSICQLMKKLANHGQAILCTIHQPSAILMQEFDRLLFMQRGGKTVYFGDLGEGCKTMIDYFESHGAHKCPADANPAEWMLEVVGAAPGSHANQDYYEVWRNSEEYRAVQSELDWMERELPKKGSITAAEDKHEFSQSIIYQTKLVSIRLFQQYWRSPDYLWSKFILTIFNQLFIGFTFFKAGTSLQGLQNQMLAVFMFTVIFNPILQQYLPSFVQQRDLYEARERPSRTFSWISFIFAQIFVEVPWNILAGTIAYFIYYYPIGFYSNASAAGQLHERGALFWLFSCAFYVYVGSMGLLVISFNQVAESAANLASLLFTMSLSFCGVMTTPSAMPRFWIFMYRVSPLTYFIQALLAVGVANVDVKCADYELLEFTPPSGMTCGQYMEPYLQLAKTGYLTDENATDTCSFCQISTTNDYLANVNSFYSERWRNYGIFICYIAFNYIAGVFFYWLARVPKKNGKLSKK
Text: inhibition of ATPase, colorimetric phosphate release on Pdr5

Pdr5 [6] = target: T1, Pdr5; experiment: enzyme-coupled (PK/LDH, NADH) ATPase assay; type: biochemical; conditions: 4 mM ATP, 5 mM MgCl2, 300 mM Tris-glycine pH 8, 30 °C, 0.004% trans-PCC-α-M

## Pdr5 (Saccharomyces cerevisiae S288C)
[1]
  Km: 1610 ± 300 µM
  Vmax: 0.106 µmol/min/mg
  Vmax/Km: 100 µL/min/mg
[2]
  Km: 1620 ± 250 µM
  Vmax: 0.385 µmol/min/mg
  Vmax/Km: 200 µL/min/mg
[3]
  Km: 590 ± 110 µM
  Vmax: 0.0646 µmol/min/mg
  Vmax/Km: 100 µL/min/mg
[4]
  Km: 440 ± 50 µM
  Vmax: 0.208 µmol/min/mg
  Vmax/Km: 500 µL/min/mg

## CCN=c1cc2oc3cc(NCC)c(C)cc3c(-c3ccccc3C(=O)OCC)c-2cc1C [rhodamine 6 G]
Pdr5 [5]
  Ki: 3.2 ± 0.2 µM

## CC(=O)N1CCN(c2ccc(OCC3COC(Cn4ccnc4)(c4ccc(Cl)cc4Cl)O3)cc2)CC1 (stereo not drawn) [ketoconazole]
Pdr5 [5]
  Ki: 22.7 ± 2.1 µM

## Nc1ncnc2c1ncn2[C@@H]1O[C@H](COP(=O)(O)O)[C@@H](O)[C@H]1O [AMP]
Pdr5 [6]
  maximum inhibition at 2 mM AMP: ~ 20%
